Patent US20190127462A1 (UNIVERSITY OF TSUKUBA, published 2019)

T1: human DNAX accessory molecule-1 (DNAM-1) protein (human, UniProt Q15762 19-336)
T1 construct: whole, on cells; Expressed on BW5147 mouse lymphocyte cells (DNAM-1/BW) or present on human peripheral blood lymphocytes / CD8+ T cells; also called CD226; human DMAM-1 protein
T1 sequence (looked up): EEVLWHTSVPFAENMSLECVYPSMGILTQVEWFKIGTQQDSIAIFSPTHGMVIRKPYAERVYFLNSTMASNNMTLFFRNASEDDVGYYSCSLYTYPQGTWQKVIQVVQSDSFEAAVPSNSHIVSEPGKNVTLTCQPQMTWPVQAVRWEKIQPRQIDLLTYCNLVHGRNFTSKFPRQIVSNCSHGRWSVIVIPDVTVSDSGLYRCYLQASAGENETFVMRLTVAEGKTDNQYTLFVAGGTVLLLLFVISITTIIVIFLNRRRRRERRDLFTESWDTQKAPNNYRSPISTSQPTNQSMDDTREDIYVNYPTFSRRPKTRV

B1: anti-human DNAM-1 monoclonal antibody No. 2 (antibody, V domains shown)
VH: SQSLSLTCTVTGYSITSDYAWNWIRQFPGNKLEWMGYISYSGTTTYNPSLKSRISITRDTSKNQFFLQLNSVTTEDTATYYCAELSMDYWGQGTSVTVSS
VL: DIVLSQSPAILSVSPGERVSFSCRASQSIGTSIHWYQQRTNGSPRLLIKYASESISGIPSRFSGSGSGTDFTLSINSVESEDIADYYCQQSRSWPLTFGAGTKLELKR
notes: Mouse hybridoma monoclonal antibody
B2: anti-human DNAM-1 monoclonal antibody No. 1 (antibody, V domains shown)
VH: SQSLSLTCSVTGYSITSGYYWNWIRQFPGNKLEWMGYISYDGSNNYNPSLKNRISITRDTSKNQFFLKLNSVTTEDTATYYCARAYYGNYVGYFDVWGAGTTVTVSS
VL: RVTITCKASQSVSNDVAWYQQKPGQSPKLLIYYASNRYTGVPDRFTGSGYGTDFTFTISTVQAEDLAVYFCQQDYSSPLTFGAGTKLELKR
notes: as for B1
B3: anti-human DNAM-1 monoclonal antibody No. 4 (antibody, V domains shown)
VH: KWGLSEISCKASGYTFTDYNMHWVKQSHGKSLEWIGYIYPYNGGTGYNQKFKSKATLTVDNSSSTAYMELRSLTSEDSAVYYCAGYWYFDVWGAGTTVTVSS
VL: EKVSITCKASQDVGTAVAWYQQKPGQSPKLLIYWASTRHTGVPDRFTGSGSGTDFTLTISNVQSEDLADYFCQQYSSYPWTFGGGTKLEIKR
notes: as for B1
B4: anti-human DNAM-1 monoclonal antibody No. 3 (antibody, V domains shown)
VH: EISCKASGYTFTNYWLGWVKQRPGHGLEWIGDIYPGGGYTNYNEKFKGKATLTADTSSSTAYMQLSSLTSEDSAVYFCANAYYRYKGFAYWGQGTLVTVSA
VL: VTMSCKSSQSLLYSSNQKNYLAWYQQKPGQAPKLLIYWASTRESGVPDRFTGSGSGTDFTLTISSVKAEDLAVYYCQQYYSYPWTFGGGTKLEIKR
notes: as for B1

Experiments:
[1] = biological target: T1, human DNAX accessory molecule-1 …; assay: flow cytometry on 1x10^5 DNAM-1/BW cells
[2] = biological target: T1, human DNAX accessory molecule-1 …; assay: flow cytometry; 1x10^5 DNAM-1/BW cells pre-saturated with 1000 ng hCD155-Fc (competitor); remaining hCD155-Fc detected
Method: After DNAM-1/BW cells reacted with the hCD155-Fc protein in advance had been reacted with a specific one of the monoclonal antibody No. 1 to No. 6 diluted serially in Test example 6, the hCD155-Fc protein bound to the DNAM-1 protein present on the surfaces of the DNAM-1/BW cells was detected. The detection of the hCD155-Fc protein was conducted using an anti-human IgG antibody. The reaction was made on ice for 30 minutes.
It was also confirmed that, in the range where the concentration of the monoclonal antibody reacted with the DNAM-1/BW cells was low, the reidues of hCD155-Fc protein after the DNAM-1/BW cells had been reacted with the monoclonal antibody No. 3 was smaller than that of hCD155-Fc protein after the DNAM-1/BW cells had been reacted with the monoclonal antibody No. 2. This proves that, in the range where the concentration of the monoclonal antibody reacted with the DNAM-1/BW cells was low, the monoclonal antibody No. 3 had higher activity of inhibiting the interaction between the DNAM-1 protein and the CD155 protein than the monoclonal antibody No. 2. In the range where the concentration of the monoclonal antibody reacted with the DNAM-1/BW cells was high, the difference in the above reactivity between the monoclonal antibody Nos. 2 and 3 was small. The amount of monoclonal antibody No. 3 required for completely inhibiting the interaction between the DNAM-1 protein and the CD155 protein was 300 ng.

Binder | minimum amount required for saturating human DNAM-1 on 1x10^5 DNAM-1/BW cells [1] | amount required for completely inhibiting the interaction between the DNAM-1 protein and the CD155 protein [2]
B1 | 50 ng | 300 ng
B2 | 30 ng | 100 ng
B3 | 100 ng | 1000 ng
B4 | 100 ng | 300 ng
